# Data: the RNAGym collection of RNA variant scans (doi:10.7554/elife.80360)
# B1: CPEB3 Ribozyme (parent)
# chain: GGGGGCCACAGCAGAAGCGUUCACGUCGCGGCCCCUGUCAGAUUCUGGUGAAUCUGCGAAUUCUGCUGU
# Variants of: B1
# Experiment: self-cleavage, relative activity (ratio to wild type); higher = more cleavage; co-transcriptional
row,Variant,self-cleavage
1,G31C U43A,0.193
2,G31C U64G,0.251
3,C33G A40G,0.648
4,C33G A51C,0.335
5,G31U G56C,0.385
6,C32G C54U,0.594
7,C32A G58U,0.914
8,C34A G58U,0.881
9,C34A G58C,0.556
10,C32U U69A,1.03
11,G31U U53C,0.354
12,C33A A60C,0.346
13,G31U A59C,0.356
14,G31U A59G,0.514
15,C34A C66A,0.634
16,C32A C57A,0.245
17,C32U G47A,0.971
18,C32U G47C,0.97
19,G31U U61C,0.258
20,C32A A59U,0.445
21,C34A A51U,0.521
22,C34A A51C,0.615
23,G31U G68U,0.974
24,G31U G68C,0.958

row,Variant,self-cleavage
1,C32A U43G,0.374
2,C32G G65U,0.267
3,C33U G58C,1.01
4,C33U G58A,1
5,C33U G58U,0.974
6,C33G U67G,0.93
7,C33G U67A,0.857
8,C32U A51G,1
9,C32U A51U,0.982
10,C33A U61G,0.5
11,G31U C45U,0.789
12,C32A C39G,0.6
13,C33U U36A,0.218
14,C33G U38G,0.324
15,C33G U38C,0.45
16,C33G U49G,0.692
17,C34A C39A,0.346
18,G31U U64G,0.479
19,C32G G56C,0.218
20,C32G G56A,0.354
21,C32G G56U,0.308
22,C32A G47U,0.897
23,C33A G41C,0.343
24,G31C G58U,0.209

row,Variant,self-cleavage
1,G31C G58C,0.179
2,C32U U44G,0.941
3,C32U U44C,0.938
4,C33A A52G,0.785
5,C33A A52U,0.454
6,C33A A52C,0.582
7,C33U A60C,0.319
8,C32A A42G,0.448
9,G31C C35G,0.141
10,C32U G58C,0.963
11,C32U G58U,0.995
12,C32U G65U,0.806
13,C32G C63G,0.233
14,C32G C63U,0.358
15,G31U C54A,0.306
16,C33A A42G,0.685
17,C33A A42U,0.499
18,C33A A42C,0.405
19,C32G C66U,0.394
20,C32G C66A,0.256
21,C32U G37C,0.241
22,C32U G37A,0.288
23,G31U C63A,0.25
24,G31U C63G,0.454

row,Variant,self-cleavage
1,C33G C63A,0.323
2,C33A C39U,0.367
3,C33A C39A,0.286
4,C33A C39G,0.436
5,C33G U53C,0.407
6,G31U G50A,0.758
7,C32G U44C,0.452
8,C34A C45A,0.528
9,C34A C45G,0.427
10,C32A C33G,0.258
11,C32A G65C,0.459
12,C32A G65U,0.418
13,C33G C66G,0.625
14,C33U C45U,0.976
15,C32U C34G,0.413
16,C32U C34U,0.924
17,C33A A59G,0.738
18,C33A A59U,0.475
19,G31C C57U,0.184
20,G31C C57A,0.163
21,G31C U55G,0.136
22,C32A C35G,0.163
23,C32A C35U,0.333
24,G31U G65A,0.517

row,Variant,self-cleavage
1,G31C C54U,0.308
2,G31C G68A,0.515
3,G31U C35U,0.363
4,G31U C35A,0.26
5,C32A G68C,0.913
6,C32U C33G,0.374
7,G31U A52C,0.556
8,C32G A60U,0.19
9,C32G A60C,0.194
10,C32U U64C,0.899
11,C32U U64A,0.992
12,G31C U67C,0.358
13,G31U U69G,1.02
14,C33A C45A,0.523
15,C33A C45G,0.665
16,C33A G37C,0.265
17,C32G U53C,0.217
18,C32G U53G,0.382
19,C33G U69C,0.972
20,C33A U46A,0.617
21,C33A U46G,0.737
22,C33A U46C,0.847
23,C32U U53C,0.875
24,G31U C34U,0.363

row,Variant,self-cleavage
1,C33U U55G,0.8
2,C33U U55C,0.685
3,C33U C66A,0.884
4,C33U C66U,0.98
5,C33U C35A,0.233
6,C33G U44A,0.29
7,C32G A51G,0.48
8,G31C C34A,0.341
9,C33G A59G,0.516
10,C33G A59U,0.362
11,C33U U67C,0.971
12,C32G A52G,0.364
13,C32G A52U,0.48
14,G31C U44C,0.27
15,C32A U36G,0.263
16,C33A C34U,0.489
17,C32U C35A,0.25
18,C32U C35U,0.77
19,C33A U43A,0.311
20,G31U A60C,0.291
21,C33U G68A,1.01
22,C33U G68U,1.02
23,G31U A51C,0.628
24,G31U A51U,0.805

row,Variant,self-cleavage
1,C32A G37A,0.263
2,C32A G37U,0.18
3,C32U C63G,0.933
4,C32G U61C,0.285
5,C32G U61G,0.342
6,C32G U36A,0.255
7,C32G U36C,0.215
8,C32U U55C,0.837
9,C33A G65A,0.786
10,C33A G65U,0.451
11,C33U C57G,0.247
12,C33U C57A,0.323
13,G31C U53C,0.237
14,G31C U53G,0.139
15,C33U C39G,0.918
16,C33U C39U,0.932
17,C32G G68U,0.815
18,G31U U44G,0.3
19,G31U U44A,0.577
20,C33G A52U,0.444
21,C32U C54G,0.819
22,C33A U67C,0.928
23,G31U U62A,0.27
24,C34A G56A,0.562

row,Variant,self-cleavage
1,C33U A52G,0.993
2,C33U A52U,0.922
3,C33A,0.916
4,C33G,0.668
5,C33U,0.994
6,C32U G50C,0.991
7,C33A A40U,0.375
8,C33A A40C,0.339
9,C32A U69A,0.965
10,C32A U69G,0.983
11,C33A G58A,0.811
12,G31C G50A,0.214
13,C32G C45U,0.573
14,C32G C45A,0.381
15,C33A G56A,0.758
16,C32U G56C,0.858
17,C33U U62G,0.845
18,C33U U62C,0.847
19,C33U U62A,0.956
20,C32U A40U,0.871
21,C32U A40G,0.95
22,C32U A40C,0.734
23,C33G G68C,0.877
24,C33G G68U,0.861

row,Variant,self-cleavage
1,C32A C45A,0.586
2,C32A C45U,0.753
3,C34A A60C,0.313
4,C34A A60G,0.44
5,C34A A60U,0.292
6,C33A G48A,0.95
7,G31C U69C,0.451
8,G31C U69A,0.381
9,C32G U49G,0.371
10,C33G G37C,0.16
11,C32U C39G,0.996
12,C32U C39A,0.915
13,G31C U62A,0.151
14,G31C U62C,0.258
15,C33G G41A,0.323
16,C33G G41C,0.27
17,C32U U38A,0.947
18,C32U U38G,0.294
19,C32U U62C,0.955
20,C32U U62A,0.979
21,C32G C39G,0.389
22,C32G C39A,0.282
23,C32A U44C,0.482
24,C32A C63A,0.317

row,Variant,self-cleavage
1,C33U G41A,0.827
2,C34A G37C,0.262
3,C32G C34A,0.303
4,C32G C34G,0.212
5,G31U C33A,0.235
6,G31U U55A,0.428
7,C33A G68C,0.967
8,C33G U46A,0.438
9,C32G U46C,0.594
10,G31U A40U,0.352
11,C33G A42C,0.314
12,C33G A42G,0.522
13,C33G U62C,0.358
14,C33G C54A,0.369
15,G31U A42U,0.485
16,C33A U69A,1
17,C32A C66G,0.708
18,C32G C57A,0.252
19,C32G C57U,0.234
20,C33U U38A,0.913
21,C32G U64C,0.311
22,C32A A52G,0.431
23,C32G C35U,0.377
24,C32U U67G,1.04

row,Variant,self-cleavage
1,C32U U67C,0.959
2,C33G G58A,0.545
3,G31U G41C,0.283
4,G31U G41A,0.348
5,G31U G37A,0.206
6,C32U A60C,0.363
7,C32U A60U,0.478
8,C32A G50U,0.707
9,C32A A51U,0.566
10,C32A A51C,0.391
11,G31U C32A,0.321
12,C33G C34A,0.253
13,C33G C34U,0.671
14,C33G C34G,0.217
15,G31U C57G,0.236
16,C33G G56A,0.496
17,C33G G56U,0.458
18,C32G A42U,0.44
19,C32G A42C,0.343
20,C32G A42G,0.569
21,C34A A42G,0.765
22,C34A A42U,0.491
23,C33G U43C,0.391
24,C33G U43A,0.299

row,Variant,self-cleavage
1,C33A G47U,0.961
2,C32A G56C,0.478
3,C32U C57A,0.339
4,C32G G48C,0.604
5,G31U G58A,0.482
6,G31U G58U,0.86
7,C32A U53A,0.501
8,C33A C63A,0.611
9,C33A C63U,0.851
10,C32G U69G,0.775
11,C32G U69A,0.709
12,G31U U49G,0.421
13,C33G U36C,0.531
14,C32G G58U,0.622
15,C32G G58C,0.478
16,C32U A52C,0.913
17,C32U G48C,0.984
18,C32U G48U,0.964
19,C32U G48A,1
20,C33U C34G,0.258
21,C33U C54G,0.828
22,C33U C54A,0.868
23,C33U U43C,0.939
24,C32A U62G,0.324

row,Variant,self-cleavage
1,C32A U62A,0.281
2,C34A C35A,0.275
3,C32G G47U,0.514
4,C32A U38A,0.791
5,C34A C54A,0.408
6,C34A C54G,0.38
7,G31U U36C,0.516
8,G31C U38A,0.237
9,C32G G50A,0.554
10,C33A U62G,0.559
11,C33A U62C,0.584
12,G31C G41U,0.217
13,C34A A59C,0.302
14,C32U U61A,0.893
15,C32A U49G,0.626
16,C32G A59C,0.243
17,C32U U36A,0.216
18,C32U U36C,0.973
19,C34A A40C,0.291
20,C32A A60G,0.454
21,C33U G37U,0.245
22,C32U U49C,1
23,C32U U49G,1.01
24,C34A G48A,0.862

row,Variant,self-cleavage
1,C34A A52U,0.664
2,C33G U55C,0.282
3,G31C G65C,0.185
4,C32G G41U,0.328
5,C33A G50U,0.893
6,C33G C35U,0.184
7,C33A U38A,0.804
8,C33A U38C,0.72
9,C33U U44A,1.01
10,C33U U44C,0.938
11,C32U G41U,0.856
12,C32U G41C,0.858
13,C34A G50C,0.773
14,C34A G50A,0.822
15,C32A C34G,0.228
16,G31U U67C,0.939
17,C32G U55A,0.268
18,C32A G41C,0.322
19,C33U G65C,0.669
20,C33U G65A,0.919
21,C33U G50U,1
22,C33A C57U,0.343
